Results on one molecule are retold here after PMC2918618, “Characterization of the TnsD-attTn7 complex that promotes site-specific insertion of Tn7” (Mobile DNA, 2010).

Positions count from the first letter of the chain named. Where only a bound is given, the exact number is not on record here.

Test in all cases: EMSA; Gel-shift buffer not given (as described in ref. 6); TnsD stored in 500 mM KCl, 50 mM Tris-HCl pH 8.0, 1 mM EDTA, 2 mM DTT, 25% glycerol
For orientation: A gel shift assay detects complexes by their altered migration in electrophoresis.

One data set has as its target T1, TnsD C447Y (Escherichia coli (transposon Tn7), UniProt P13991 1-508, C447Y).
T1 sequence: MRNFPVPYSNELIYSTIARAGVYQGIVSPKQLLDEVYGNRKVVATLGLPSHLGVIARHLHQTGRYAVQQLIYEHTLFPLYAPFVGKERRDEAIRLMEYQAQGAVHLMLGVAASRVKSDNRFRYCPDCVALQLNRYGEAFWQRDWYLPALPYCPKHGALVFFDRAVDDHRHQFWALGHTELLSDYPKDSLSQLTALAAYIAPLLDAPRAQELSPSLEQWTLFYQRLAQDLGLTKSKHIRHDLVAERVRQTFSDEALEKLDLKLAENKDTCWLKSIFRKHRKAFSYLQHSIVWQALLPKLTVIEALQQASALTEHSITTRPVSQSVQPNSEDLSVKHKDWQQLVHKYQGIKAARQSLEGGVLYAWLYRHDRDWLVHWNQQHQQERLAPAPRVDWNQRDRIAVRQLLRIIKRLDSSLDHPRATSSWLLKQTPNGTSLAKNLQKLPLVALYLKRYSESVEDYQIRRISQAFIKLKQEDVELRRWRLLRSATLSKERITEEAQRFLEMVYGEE
Particulars: protein: recombinant; tags: intein-chitin tag, cleaved with DTT.

A further data set deals with T2, TnsD Q340Z (Escherichia coli (transposon Tn7), UniProt P13991 1-339).
T2 sequence: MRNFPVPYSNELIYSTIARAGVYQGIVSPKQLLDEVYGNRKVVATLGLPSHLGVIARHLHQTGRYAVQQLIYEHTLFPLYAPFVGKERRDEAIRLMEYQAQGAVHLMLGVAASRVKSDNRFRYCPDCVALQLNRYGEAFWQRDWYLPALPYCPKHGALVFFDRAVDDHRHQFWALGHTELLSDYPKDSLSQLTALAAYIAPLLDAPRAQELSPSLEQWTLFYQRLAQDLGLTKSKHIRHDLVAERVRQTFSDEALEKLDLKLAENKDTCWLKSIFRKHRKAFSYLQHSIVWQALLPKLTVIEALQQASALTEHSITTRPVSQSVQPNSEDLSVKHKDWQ
Particulars: protein: recombinant.

For a further data set, the target named is T3, TnsD P147L (Escherichia coli (transposon Tn7), UniProt P13991 1-508, P147L).
T3 sequence: T1 sequence with P147L, Y447C
Particulars: protein: recombinant; tags: intein-chitin tag, cleaved with DTT.

The target of the next data set is T4, TnsD M96I (Escherichia coli (transposon Tn7), UniProt P13991 1-508, M96I).
T4 sequence: T1 sequence with M96I, Y447C
Particulars: protein: recombinant; tags: intein-chitin tag, cleaved with DTT.

A further data set addresses T5, TnsD W371Z (Escherichia coli (transposon Tn7), UniProt P13991 1-370).
T5 sequence: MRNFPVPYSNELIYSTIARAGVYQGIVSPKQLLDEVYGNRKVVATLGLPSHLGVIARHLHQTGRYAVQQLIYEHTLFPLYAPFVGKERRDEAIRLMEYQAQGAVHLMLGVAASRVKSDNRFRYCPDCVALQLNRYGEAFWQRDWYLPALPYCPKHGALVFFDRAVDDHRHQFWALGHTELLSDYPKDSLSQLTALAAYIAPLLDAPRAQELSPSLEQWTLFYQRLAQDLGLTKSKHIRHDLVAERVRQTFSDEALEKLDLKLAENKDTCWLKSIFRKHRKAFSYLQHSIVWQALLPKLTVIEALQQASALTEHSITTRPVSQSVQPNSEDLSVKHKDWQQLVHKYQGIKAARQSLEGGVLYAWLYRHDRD
Particulars: protein: recombinant.

B1: attTn7 wt (+23 to +58) (dsDNA)
DNA 1: CCGCGTAACCTGGCAAAATCGGTTACGGTTGAGTAA
DNA 2: TTACTCAACCGTAACCGATTTTGCCAGGTTACGCGG
With B1, the binding signal with TnsD C447Y is 0.7 relative to wt; with TnsD Q340Z, < 0.05 relative to wt; in the data set with TnsD P147L it was 0.07 relative to wt; with TnsD M96I, 0.3 relative to wt; in the data set with TnsD W371Z, < 0.05 relative to wt.
